Patent US20210238229A1, “PEPTIDE FOR DISEASE TREATMENT” (UNIVERSITY COLLEGE CORK - NATIONAL UNIVERSITY OF IRELAND, …, priority 2018, published 2021)
Where no end group is shown, it is not given here.

Assays:
AT2 receptor [1] = molecular target: T1, AT2 receptor (Homo sapiens, UniProt P50052); assay: cAMP in AT2-transfected HEK293 cells; format: cell-based; settings: for intracellular cAMP production: AT2-transfected HEK293, 15 min stimulation
T1 construct: expressed in transfected cells; host or cells: HEK-293, transient transfection with PolyFect
T1 sequence (P50052 1-363): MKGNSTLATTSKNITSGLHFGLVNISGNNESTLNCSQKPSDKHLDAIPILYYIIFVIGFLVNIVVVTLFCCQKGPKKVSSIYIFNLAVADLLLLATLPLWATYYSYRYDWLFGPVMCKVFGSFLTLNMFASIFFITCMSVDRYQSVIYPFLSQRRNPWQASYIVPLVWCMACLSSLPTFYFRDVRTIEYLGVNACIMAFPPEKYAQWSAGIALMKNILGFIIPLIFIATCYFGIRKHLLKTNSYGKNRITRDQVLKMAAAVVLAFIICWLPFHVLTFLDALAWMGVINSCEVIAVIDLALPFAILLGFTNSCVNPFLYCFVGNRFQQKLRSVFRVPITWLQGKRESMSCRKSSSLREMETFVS
Experimental: Human embryonic kidney (HEK-293) cells were cultured in DMEM medium supplemented with FBS (10%), HEPES buffer (1%), sodium pyruvate (1%), and L-glutamine (1%) and maintained under standard conditions (5% CO2, 95% humidity and 37° C.). Cells were cultured in 100 mm cell culture dishes and seeded in 48-well plates at a density of 75,000 cells per well. The next day, HEK-293 cells were transfected using a transient transfection procedure following the manufacturer's instructions. Briefly, 150 ng of control plasmid pcDNA3.1 or a combination of 50 ng of pcDNA3.1 and 100 ng of expression vectors containing the cDNA for Mas, MrgD, AT1 or AT2, were mixed with serum-free medium and PolyFect transfection reagent. After 10 min incubation at room temperature, which allowed the complex formation, complete medium was added and the total volume was transferred into appropriate wells of the 48-well plate. The cells were incubated for 16-20 hrs. The next day, the medium was replaced by serum-free medium 1 hr before stimulation. After stimulation with A779, D-Pro, PD123319, forskolin (all 10^−6 M), or PTX (50 ng/ml), or SQ22536 (2×10^−6M) for 15 min, the solvent, Ang-(1-6) or C21 (all in the mentioned concentrations) were added for 15 min. Then, the cells were lysed by adding 180 μl/well of 0.1M hydrochloric acid with 0.1% Triton X-100, and the lysates were stored at −80° C. until cAMP measurement. The protein concentration was determined using Pierce BCA Protein Assay Kit according to the manufacturer's protocol (Thermo Fisher Scientific, Waltham, Mass., USA).
(§1) cAMP concentration in cell lysates was determined using Direct cAMP ELISA kit (Enzo Life Sciences Ltd., Exeter, United Kingdom). Briefly, wells of 96-well plate (Goat Anti-Rabbit IgG pre-coated) were neutralized with 50 μl of Neutralizing Reagent. Next, 100 μl of acetylated cAMP standard or cell lysate was added, followed by 50 μl of blue cAMP-Alkaline Phosphatase Conjugate and 50 μl of yellow EIA Rabbit Anti-cAMP antibody. The plate was then incubated on a shaker (˜400 rpm) at room temperature for 2 h. Next, the wells were aspirated and rinsed three times with Wash Buffer (1:10, Tris buffered saline containing detergents and sodium azide in deionized water). After the final wash, the plate was tapped against clean paper towel to remove any remaining Wash Buffer. To each well, 200 μl p-Nitrophenyl Phosphate Substrate Solution was added, and the plate was incubated for 1 h at room temperature. The enzymatic reaction was stopped by adding 50 μl of Stop Solution, and the absorbance at 405 nm was measured immediately. The cAMP concentration was determined from non-linear standard curve using GraphPad Prism 6.0 software.
The results are illustrated by FIG. 1A.
pcDNA-transfected HEK293 cells and AT2-transfected HEK293 cells were stimulated for 15 min with a range of concentrations (10^−16 to 10^−6 M) of Ang-(1-6). The results are illustrated by FIGS. 1B and 1C.
AT2-transfected HEK293 cells were stimulated for 15 min with a range of concentrations (10^−13 to 10^−6 M) of C21, Ang (1-4) and Ang (1-7) PBS and the concentration of cAMP was measured in accordance with the methodology provided. The results are illustrated by FIGS. 6 and 7.
AT2-transfected HEK293 cells were stimulated for 15 min with C21, Ang-(1-6) and a range of concentrations (10^−14 to 10^−7 M) of Ala^1-Ser^4-Ang-(1-6), and the concentration of cAMP was measured in accordance with the methodology provided.
AT2-transfected HEK293 cells were stimulated for 15 min with Ang-(1-6) and a range of concentrations (10^−15 to 10^−7 M) of Ser^4-Ang-(1-6) and the concentration of cAMP was measured in accordance with the methodology provided.

AT2 receptor [2] = molecular target: T1, AT2 receptor; assay: Block of Ang-(1-6) mediated cAMP signal in AT2-transfected HEK293 cells; format: cell-based; settings: Ang-(1-6) 10^−10 M, increasing antagonist concentrations
Experimental: Human embryonic kidney (HEK-293) cells were cultured in DMEM medium supplemented with FBS (10%), HEPES buffer (1%), sodium pyruvate (1%), and L-glutamine (1%) and maintained under standard conditions (5% CO2, 95% humidity and 37° C.). Cells were cultured in 100 mm cell culture dishes and seeded in 48-well plates at a density of 75,000 cells per well. The next day, HEK-293 cells were transfected using a transient transfection procedure following the manufacturer's instructions. […] The protein concentration was determined using Pierce BCA Protein Assay Kit according to the manufacturer's protocol (Thermo Fisher Scientific, Waltham, Mass., USA).
cAMP concentration in cell lysates was determined using Direct cAMP ELISA kit (Enzo Life Sciences Ltd., Exeter, United Kingdom). […] The enzymatic reaction was stopped by adding 50 μl of Stop Solution, and the absorbance at 405 nm was measured immediately. The cAMP concentration was determined from non-linear standard curve using GraphPad Prism 6.0 software.
Cells were stimulated for 15 min with (a) 10^−11 M and 10^−1° M Ang-(1-6), (b) Ala^1-Ang-(1-6) (10^−10 M) or (c) a range of concentrations (10^−12M to 10^−8M) of Ala^1-Ang (1-6) together with Ang-(1-6) at a concentration of 10^−10M. The concentration of cAMP was measured in accordance with the methodology provided.

HUVEC = assay: cAMP in primary human umbilical vein endothelial cells; format: cell-based; settings: 15 min stimulation
Experimental: Primary human umbilical vein endothelial cells (HUVEC) were purchased from PromoCell (Heidelberg, Germany). HUVEC were cultured in 100 mm cell culture dishes and were seeded at 75,000 per well in 24-well plates at passage 5-7, for stimulation. Stimulation with Ang-(1-6) or C21 and the blockers was carried out as described above.
as §1, with “To each well, 200 μl p-Nitrophenyl Phosphate Substrate Solution was added, and the plate was incubated for 1 h at room temperature.” left out, “software. […]” for “software.”

[3] = system: Human kidney cancer A498 cells; assay: Colony formation assay; format: cell-based; settings: daily treatment for 5 days
Experimental: Human kidney cancer A498 cells were seeded at 300 cells/well in a 6-well plate. The next day, cells were treated with various peptides daily. Each condition was run in triplicate. After 5 days of treatment, cells were washed once with PBS after media removal, stained with 0.5% crystal violet in 30% ethanol and 3% formaldehyde for 10 min at RT and washed with distilled water. Colonies were counted under the microscope.
Human renal cancer cells were treated with Ang-(1-6) or analogues and the effect on colony formation counted. Such cells are used for in vivo experiments in rodents when implanted subcutaneously or into the kidney to generate a rapidly forming and growing tumour, being leathal if untreated.

[4] = Peptide degradation in mouse kidney membranes; format: in vitro ADME; settings: after 15 minutes, compared to Ang-(1-7) and Ang II
Experimental: Peptides (10^−4M) were incubated with 45 μg of murine kidney membrane preparations and diluted with 50 mM Tris-HCl buffer pH 7.4 laced with 0.1% BSA to minimise adhesion of the peptide onto the tube walls. Incubations proceeded for the desired time, after which the reaction was stopped by addition of half volume of 350 mM HClO4. Samples were then centrifuged to remove any particulates prior to LCMS analysis.
Ang-(1-6) degradation in mouse kidney membranes over 30 minutes compared to Ang-(1-7) and Ang II. (FIG. 4A)

ARVSIH [Ala^1-Ser^4-Ang-(1-6), variant of Ang-(1-6) with Ala at position 1 and Ser at position 4]
concentration at Emax (cAMP) (AT2 receptor [1]; AT2-transfected HEK293): 10^−11 M
intracellular cAMP production (AT2 receptor [1]): increases intracellular cAMP production
increase in intracellular cAMP production compared with Ang (1-6) (AT2 receptor [1]; same concentration (10^−11M)): greater increase

ARVYIH [Ala^1-Ang-(1-6), variant of Ang-(1-6) with Ala at position 1, AT2 antagonist]
intracellular cAMP production (AT2 receptor [1]): no effect
block of cAMP-generating capacity of Ang-(1-6) (AT2 receptor [2]): completely blocked

CCCCOC(=O)NS(=O)(=O)c1sc(CC(C)C)cc1-c1ccc(Cn2ccnc2)cc1 [C21]
cAMP stimulation in primary endothelial cells (HUVEC) (HUVEC): can stimulate such cells

DRVYIHP [Ang (1-7), reference compound]
intracellular cAMP production (AT2 receptor [1]): do not increase intracellular cAMP

RVSIH [Ser^4-Ang (2-6), fragment peptide 2-6 with Ser substitution]
number of colonies versus solvent (PBS) [3]: significant reduction of colonies

DRVSIH [Ser^4-Ang-(1-6), variant of Ang-(1-6) with Ser at position 4]
AT2 stimulation relative to Ang (1-6) (AT2 receptor [1]; AT2-transfected HEK293, 10^−15 to 10^−7 M): comparable to Ang (1-6)
intracellular cAMP production (AT2 receptor [1]): increases intracellular cAMP production

DRVYIH [Ang (1-6), DRVYIH]
peptide degradation [4]: rapid

RVYIH [Ang (2-6), truncated version of Ang (1-6)]
number of colonies versus solvent (PBS) [3]: significant reduction of colonies

DRVY (Angiotensin-2; UniProt P01019 25-28, looked up, fragment) [Ang (1-4), angiotensin fragment 1-4, reference compound]
intracellular cAMP production (AT2 receptor [1]): do not increase intracellular cAMP
